Test [1] concerns the target T1, B-cat-Halo (beta-catenin HaloTag NanoBRET construct expressed in HEK293 cells) (UniProt P35222 1-781, HaloTag NanoBRET 618 Ligand bound in the assay).
T1 sequence (looked up): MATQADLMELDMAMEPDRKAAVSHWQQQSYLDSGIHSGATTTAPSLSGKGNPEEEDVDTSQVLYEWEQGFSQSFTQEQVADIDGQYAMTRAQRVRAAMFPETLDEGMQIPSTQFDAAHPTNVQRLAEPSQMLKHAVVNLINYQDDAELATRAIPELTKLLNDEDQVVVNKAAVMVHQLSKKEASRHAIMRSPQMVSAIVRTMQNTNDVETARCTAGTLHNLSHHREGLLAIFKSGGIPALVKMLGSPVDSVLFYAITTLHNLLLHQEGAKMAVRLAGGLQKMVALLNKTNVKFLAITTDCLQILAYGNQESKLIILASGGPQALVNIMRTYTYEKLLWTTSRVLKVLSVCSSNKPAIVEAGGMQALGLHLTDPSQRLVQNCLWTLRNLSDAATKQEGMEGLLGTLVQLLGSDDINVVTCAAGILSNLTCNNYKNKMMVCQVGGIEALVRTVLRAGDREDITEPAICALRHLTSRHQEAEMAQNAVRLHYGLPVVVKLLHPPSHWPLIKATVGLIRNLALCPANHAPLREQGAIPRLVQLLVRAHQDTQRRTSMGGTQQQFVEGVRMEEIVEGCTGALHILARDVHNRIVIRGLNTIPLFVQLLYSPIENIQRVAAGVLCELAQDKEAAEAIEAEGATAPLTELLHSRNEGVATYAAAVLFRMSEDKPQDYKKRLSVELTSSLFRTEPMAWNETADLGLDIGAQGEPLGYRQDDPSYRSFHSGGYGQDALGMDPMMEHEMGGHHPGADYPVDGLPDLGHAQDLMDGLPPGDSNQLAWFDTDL
Kind of test: cell-based or functional assay.

In test [2] the target is T2, full-length beta-Catenin (Uniprot ID P35222) (Homo sapiens (Human), UniProt P35222 2-781).
T2 construct: The FP protocol names full-length beta-Catenin (Uniprot ID P35222); also called bCat; B-Catenin
T2 sequence: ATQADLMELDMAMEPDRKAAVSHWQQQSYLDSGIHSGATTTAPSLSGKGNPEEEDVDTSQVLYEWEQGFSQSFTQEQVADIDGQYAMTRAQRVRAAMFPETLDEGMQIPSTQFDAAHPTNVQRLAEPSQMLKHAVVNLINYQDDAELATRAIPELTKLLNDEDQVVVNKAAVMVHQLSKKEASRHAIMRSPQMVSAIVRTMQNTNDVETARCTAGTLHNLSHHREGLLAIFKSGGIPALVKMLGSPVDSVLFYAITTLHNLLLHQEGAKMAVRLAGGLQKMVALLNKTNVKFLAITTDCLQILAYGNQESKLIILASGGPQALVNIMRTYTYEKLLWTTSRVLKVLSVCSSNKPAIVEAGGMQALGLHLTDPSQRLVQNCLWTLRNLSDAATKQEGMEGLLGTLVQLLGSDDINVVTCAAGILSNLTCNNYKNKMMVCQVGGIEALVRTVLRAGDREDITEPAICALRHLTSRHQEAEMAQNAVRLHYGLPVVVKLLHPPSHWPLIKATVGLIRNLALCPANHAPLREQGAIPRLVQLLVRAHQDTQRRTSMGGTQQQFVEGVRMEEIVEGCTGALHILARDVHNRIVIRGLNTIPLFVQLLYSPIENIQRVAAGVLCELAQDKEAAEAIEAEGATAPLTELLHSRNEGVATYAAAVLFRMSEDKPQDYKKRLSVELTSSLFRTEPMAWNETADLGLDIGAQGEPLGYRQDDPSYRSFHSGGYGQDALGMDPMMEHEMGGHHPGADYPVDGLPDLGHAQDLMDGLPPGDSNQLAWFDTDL
The test can be described thus: fluorescence polarization competition; full-length beta-catenin, 5FAM-TCF4(10-53) probe as competitor. The procedure, abridged: (§1)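 Fluorescence polarization was read in duplicate after the plate sat 60 minutes at 20° C. shielded from light. Values come from fitting to a 1:1 binding model with hill slope.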
A general note: Polarisation of emitted light reports the rotation of a fluorescent probe.

The target in test [3] is T3, B-cat-Halo (beta-catenin HaloTag construct expressed in HEK293 cells) (UniProt P35222 1-781, HaloTag NanoBRET 618 Ligand bound in the assay).
T3 construct: Transfected NanoBRET construct; not shown: HaloTag
T3 sequence (looked up): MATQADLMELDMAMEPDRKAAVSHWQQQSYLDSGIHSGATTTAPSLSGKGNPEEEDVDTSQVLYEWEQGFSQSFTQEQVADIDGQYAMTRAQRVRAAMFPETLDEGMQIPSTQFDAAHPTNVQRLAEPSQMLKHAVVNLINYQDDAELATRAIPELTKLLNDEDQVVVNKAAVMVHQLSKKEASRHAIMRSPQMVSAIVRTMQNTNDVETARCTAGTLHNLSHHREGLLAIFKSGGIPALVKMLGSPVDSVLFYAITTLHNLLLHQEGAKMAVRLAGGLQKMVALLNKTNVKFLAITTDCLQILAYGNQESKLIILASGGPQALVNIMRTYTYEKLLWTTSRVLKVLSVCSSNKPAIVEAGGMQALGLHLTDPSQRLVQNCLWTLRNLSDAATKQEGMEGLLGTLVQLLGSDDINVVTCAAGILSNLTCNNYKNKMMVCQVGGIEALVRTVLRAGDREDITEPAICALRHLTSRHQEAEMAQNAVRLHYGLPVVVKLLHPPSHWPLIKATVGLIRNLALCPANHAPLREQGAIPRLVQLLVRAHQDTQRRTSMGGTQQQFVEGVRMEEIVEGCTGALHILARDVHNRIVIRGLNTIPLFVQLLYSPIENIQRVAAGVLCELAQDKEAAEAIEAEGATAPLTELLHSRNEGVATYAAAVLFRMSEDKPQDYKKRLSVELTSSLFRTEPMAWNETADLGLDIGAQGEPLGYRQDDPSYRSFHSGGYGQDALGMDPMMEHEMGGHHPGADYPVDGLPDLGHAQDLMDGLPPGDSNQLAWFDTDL
The test can be described thus: NanoBRET Abs IC50 in HEK293 cells; B-cat-Halo with competitor TCF4-Luc.

Test [4] concerns the target T4, full-length beta-Catenin (Uniprot ID P35222) (Homo sapiens (Human), UniProt P35222 2-781).
T4 construct: Given as 'full-length beta-Catenin (Uniprot ID P35222)' in the fluorescence polarization protocol; also called bCat; B-Catenin
T4 sequence: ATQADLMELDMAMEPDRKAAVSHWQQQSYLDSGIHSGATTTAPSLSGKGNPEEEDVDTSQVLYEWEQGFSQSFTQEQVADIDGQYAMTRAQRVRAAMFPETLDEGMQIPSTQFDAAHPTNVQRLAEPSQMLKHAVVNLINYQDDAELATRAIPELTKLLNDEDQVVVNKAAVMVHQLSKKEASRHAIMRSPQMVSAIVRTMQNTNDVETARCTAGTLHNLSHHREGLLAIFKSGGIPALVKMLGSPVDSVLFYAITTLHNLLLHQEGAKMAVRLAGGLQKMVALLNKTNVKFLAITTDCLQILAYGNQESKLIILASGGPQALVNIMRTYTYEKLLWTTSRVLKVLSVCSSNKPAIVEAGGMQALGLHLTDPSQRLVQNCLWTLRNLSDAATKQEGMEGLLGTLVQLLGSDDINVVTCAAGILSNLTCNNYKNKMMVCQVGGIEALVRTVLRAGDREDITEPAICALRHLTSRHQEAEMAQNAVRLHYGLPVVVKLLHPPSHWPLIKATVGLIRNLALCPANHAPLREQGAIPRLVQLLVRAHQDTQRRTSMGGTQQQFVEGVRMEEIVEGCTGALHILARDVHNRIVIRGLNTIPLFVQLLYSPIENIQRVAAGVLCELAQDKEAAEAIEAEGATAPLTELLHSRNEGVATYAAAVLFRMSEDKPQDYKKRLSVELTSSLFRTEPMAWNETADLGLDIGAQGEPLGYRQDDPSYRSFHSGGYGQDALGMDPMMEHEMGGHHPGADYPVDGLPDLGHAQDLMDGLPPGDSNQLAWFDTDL
The test can be described thus: fluorescence polarization competition; full-length beta-catenin, competitor 5FAM-TCF4 10-53 probe. As for the experimental part:
The plate was incubated protected from light for 60 minutes at 20° C. prior to read. Reads were performed on a CLARIOstar plate reader (BMG Labtech) in duplicate, and data were fitted to a 1:1 binding model with hill slope using an in-house script. All provided concentrations are final concentrations.

Another test has as its target T5, B-cat-Halo (UniProt P35222 1-781, HaloTag NanoBRET 618 Ligand bound to the HaloTag in the assay).
T5 construct: Transfected into HEK293 cells for the NanoBRET assay; intracellular; also called beta-catenin HaloTag fusion; not shown: HaloTag
T5 sequence (looked up): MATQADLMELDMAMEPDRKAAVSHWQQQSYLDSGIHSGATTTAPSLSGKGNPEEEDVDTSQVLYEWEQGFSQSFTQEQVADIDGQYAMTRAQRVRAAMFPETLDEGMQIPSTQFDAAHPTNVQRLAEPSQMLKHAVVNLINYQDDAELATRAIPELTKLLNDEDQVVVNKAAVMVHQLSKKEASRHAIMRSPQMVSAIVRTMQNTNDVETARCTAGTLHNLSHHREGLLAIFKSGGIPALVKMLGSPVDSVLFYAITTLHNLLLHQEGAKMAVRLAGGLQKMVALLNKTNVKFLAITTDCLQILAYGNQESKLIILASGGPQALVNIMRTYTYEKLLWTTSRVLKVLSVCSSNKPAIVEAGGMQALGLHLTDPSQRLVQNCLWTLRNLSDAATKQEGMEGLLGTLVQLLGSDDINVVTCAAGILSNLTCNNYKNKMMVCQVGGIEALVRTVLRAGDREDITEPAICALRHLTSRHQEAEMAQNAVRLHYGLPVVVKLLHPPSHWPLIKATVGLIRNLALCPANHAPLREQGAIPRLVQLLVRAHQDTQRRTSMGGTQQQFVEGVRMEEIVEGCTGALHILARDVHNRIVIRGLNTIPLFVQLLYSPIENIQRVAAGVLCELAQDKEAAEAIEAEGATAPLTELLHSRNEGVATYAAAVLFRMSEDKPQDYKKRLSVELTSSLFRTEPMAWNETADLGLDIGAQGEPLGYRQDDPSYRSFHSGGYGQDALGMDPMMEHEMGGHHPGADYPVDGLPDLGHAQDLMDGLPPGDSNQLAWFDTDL
The test can be described thus: NanoBRET absolute IC50 in HEK293 cells; Bcat-Halo, competitor TCF4-Luc. On the technique in general: BRET reads energy transfer from a luciferase to a nearby fluorophore.

Test [5] addresses T6, full-length beta-Catenin (Uniprot ID P35222) (Homo sapiens (Human), UniProt P35222 1-781).
T6 construct: Tags of the recombinant protein are not described for the FP assay; also called bCat; B-Catenin
T6 sequence: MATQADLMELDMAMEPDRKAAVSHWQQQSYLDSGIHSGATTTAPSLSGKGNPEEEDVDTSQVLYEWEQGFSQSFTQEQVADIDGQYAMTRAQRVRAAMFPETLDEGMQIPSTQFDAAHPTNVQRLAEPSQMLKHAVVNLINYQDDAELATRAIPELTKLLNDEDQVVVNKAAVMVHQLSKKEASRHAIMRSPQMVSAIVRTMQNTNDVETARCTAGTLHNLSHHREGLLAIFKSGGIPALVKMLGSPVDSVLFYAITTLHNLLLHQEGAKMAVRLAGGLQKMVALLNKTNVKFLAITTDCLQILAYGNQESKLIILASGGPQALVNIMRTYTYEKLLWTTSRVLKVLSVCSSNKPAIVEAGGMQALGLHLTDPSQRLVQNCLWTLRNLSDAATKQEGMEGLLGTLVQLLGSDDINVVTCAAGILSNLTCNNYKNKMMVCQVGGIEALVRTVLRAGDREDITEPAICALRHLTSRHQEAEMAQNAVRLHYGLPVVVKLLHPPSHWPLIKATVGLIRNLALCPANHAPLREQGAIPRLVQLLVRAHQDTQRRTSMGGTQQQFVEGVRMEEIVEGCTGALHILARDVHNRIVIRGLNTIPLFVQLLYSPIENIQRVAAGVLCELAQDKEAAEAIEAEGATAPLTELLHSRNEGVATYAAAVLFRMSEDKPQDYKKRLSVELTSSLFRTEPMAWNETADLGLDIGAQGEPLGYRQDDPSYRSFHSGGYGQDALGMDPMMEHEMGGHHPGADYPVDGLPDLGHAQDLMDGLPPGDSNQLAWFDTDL
Kind of test: fluorescence polarization competition; full-length beta-catenin, competitor 5FAM-TCF4(10-53) probe. A digest of the protocol:
as §1

Starred links: 1 amine or outer side, 2 acyl side, 3 side chain; linkers in the order of their positions; H or OH if unused. Positions of bridges follow the written chain, without caps; N, C: chain ends. Non-standard residues stand in square brackets, D forms with d. Primed or numbered codes have the meaning given here. B5(4) = 2,2-bis(4-pentenyl)glycine = 2-amino-2-(pent-4-en-1-yl)hept-6-enoic acid (stitching residue), C=CCCCC(CCCC=C)(N[*:1])C(=O)[*:2]; PyrS2 = (S)-3-amino-1-((pent-4-en-1-yloxy)carbonyl)pyrrolidine-3-carboxylic acid, C=CCCCOC(=O)N1CC[C@@](N[*:1])(C(=O)[*:2])C1; B5(19) = 2-amino-2-(pent-4-en-1-yl)hept-6-enoic acid (bis(4-pentenyl)glycine), C=CCCCC(CCCC=C)(N[*:1])C(=O)[*:2]; Bta = N[C@@H](Cc1csc2ccccc12)C(=O)O; αAllylPro = C=CC[C@@]1(C(=O)O)CCCN1; S8 = C=CCCCCCC[C@](C)(N)C(=O)O

B1: I-1811 (peptide)
peptide: Ac-[αAllylPro]DL[B5(19)]DDAAFL[PyrS2]FWQ-NH2
modifications: staple 1-4, 4-11
notes: Stapled peptide; also called Ac-PL3-Asp-Leu-B5-Asp-Asp-Ala-Ala-Phe-Leu-PyrS2-Phe-Trp-Gln-NH2
Usually IC50 stands for the concentration at which inhibition is half-maximal. Higher therefore signals weaker potency in that assay. Take B1: the “NanoBRET Abs IC50” value in test [1] was found to be 32.3 µM. Moreover, in test [2], the IC50 came to 0.156 µM.

B2: I-1402 (peptide)
peptide: Ac-[αAllylPro]DL[B5(19)]DDAAFL[PyrS2]F[Bta]Q-NH2
modifications: staple 1-4, 4-11
As for B2, the IC50 in test [3] is 27.1 µM; in test [4], 0.009 µM.

B3: I-1458 (peptide)
peptide: Ac-[αAllylPro]DL[B5(4)]DEAAFQ[S8]F[Bta]Q-NH2
modifications: staple 1-4, 4-11
With B3, the IC50 came to 18.1 µM in the test with B-cat-Halo and 0.026 µM in test [5].
